Measurements taken from patent EP1676860A1.

target: thrombin; experiment: cell-based or functional assay

Substance | Secondary rate constant (+ hep): thrombin inhibition secondary rate constant in the presence of heparin | Secondary rate constant (- hep): thrombin inhibition secondary rate constant in the absence of heparin
ATIII DG44 peak (1) fraction (recombinant human antithrombin III produced by the CHO/DG44 transformant pKAN-ATIII AFDG44, heparin-affinity peak (1)) (from UniProt P01008 33-464) | 8.7e+06 M⁻¹ s⁻¹ | 7700 M⁻¹ s⁻¹
ATIII DG44 peak (2) fraction (recombinant human antithrombin III produced by the CHO/DG44 transformant pKAN-ATIII AFDG44, heparin-affinity peak (2)) (from UniProt P01008 33-464) | 2e+07 M⁻¹ s⁻¹ | 8600 M⁻¹ s⁻¹
ATIII MS705 peak (2) fraction (recombinant human antithrombin III produced by the FUT8 gene-double-knockout CHO/DG44 transformant pKAN-ATIII AFMS705, heparin-affinity peak (2)) (from UniProt P01008 33-464) | 2.5e+07 M⁻¹ s⁻¹ | –
ATIII MS705 peak (3) fraction (recombinant human antithrombin III produced by the FUT8 gene-double-knockout CHO/DG44 transformant pKAN-ATIII AFMS705, heparin-affinity peak (3)) (from UniProt P01008 33-464) | 2.6e+07 M⁻¹ s⁻¹ | 8800 M⁻¹ s⁻¹
Neuart (human plasma-derived antithrombin III preparation, manufactured by Mitsubishi Pharma Corporation) (from UniProt P01008 33-464) | 2.3e+07 M⁻¹ s⁻¹ | 8200 M⁻¹ s⁻¹
